Patent publication US20030138894A1 (Human Genome Sciences, published 2003)
Positions of bridges follow the written chain, without caps; N, C: chain ends. No end group written: not given here.

B1: ACE-2 binding polypeptide SPTCRALFCVDF (peptide)
peptide: SPTCRALFCVDF
modifications: not fully specified (N-terminus, C-terminus, bridges); cysteine pairing not given here
B2: ACE-2 binding polypeptide VYFCFDWEQDCDEM (peptide)
peptide: VYFCFDWEQDCDEM
modifications: not fully specified (N-terminus, C-terminus, bridges); cysteine pairing not given here
B3: ACE-2 binding polypeptide WPTCLTMDCVYN (peptide)
peptide: WPTCLTMDCVYN
modifications: not fully specified (N-terminus, C-terminus, bridges); cysteine pairing not given here
B4: ACE-2 binding polypeptide WAVCFDWEN-CGDK (peptide)
peptide: WAVCFDWENCGDK
modifications: not fully specified (bridges); printed as W A V C F D W E N - C G D K; cysteine pairing not given here
notes: one position printed as '-'
B5: ACE-2 binding polypeptide WVLCFEWEDCDEK (peptide)
peptide: WVLCFEWEDCDEK
modifications: not fully specified (N-terminus, C-terminus, bridges); cysteine pairing not given here
B6: ACE-2 binding polypeptide PFECDWGPWTLEMLCGPP (peptide)
peptide: PFECDWGPWTLEMLCGPP
modifications: not fully specified (N-terminus, C-terminus, bridges); cysteine pairing not given here
B7: ACE-2 binding polypeptide RGFCRDSSCSFP (peptide)
peptide: RGFCRDSSCSFP
modifications: not fully specified (N-terminus, C-terminus, bridges); cysteine pairing not given here
B8: ACE-2 binding polypeptide RIGCRDSRCNWWAPG (peptide)
peptide: RIGCRDSRCNWWAPG
modifications: not fully specified (N-terminus, C-terminus, bridges); cysteine pairing not given here

target: T1, FLAG-tagged ACE-2 target (human, UniProt Q9BYF1 18-740); assay: phage ELISA on FLAG-ACE-2
T1 construct: range 1-740; obtained from Human Genome Sciences, Inc; also called FLAG-ACE-2; tagged human ACE-2; not shown: FLAG tag
T1 sequence (Q9BYF1 18-740 limits assumed): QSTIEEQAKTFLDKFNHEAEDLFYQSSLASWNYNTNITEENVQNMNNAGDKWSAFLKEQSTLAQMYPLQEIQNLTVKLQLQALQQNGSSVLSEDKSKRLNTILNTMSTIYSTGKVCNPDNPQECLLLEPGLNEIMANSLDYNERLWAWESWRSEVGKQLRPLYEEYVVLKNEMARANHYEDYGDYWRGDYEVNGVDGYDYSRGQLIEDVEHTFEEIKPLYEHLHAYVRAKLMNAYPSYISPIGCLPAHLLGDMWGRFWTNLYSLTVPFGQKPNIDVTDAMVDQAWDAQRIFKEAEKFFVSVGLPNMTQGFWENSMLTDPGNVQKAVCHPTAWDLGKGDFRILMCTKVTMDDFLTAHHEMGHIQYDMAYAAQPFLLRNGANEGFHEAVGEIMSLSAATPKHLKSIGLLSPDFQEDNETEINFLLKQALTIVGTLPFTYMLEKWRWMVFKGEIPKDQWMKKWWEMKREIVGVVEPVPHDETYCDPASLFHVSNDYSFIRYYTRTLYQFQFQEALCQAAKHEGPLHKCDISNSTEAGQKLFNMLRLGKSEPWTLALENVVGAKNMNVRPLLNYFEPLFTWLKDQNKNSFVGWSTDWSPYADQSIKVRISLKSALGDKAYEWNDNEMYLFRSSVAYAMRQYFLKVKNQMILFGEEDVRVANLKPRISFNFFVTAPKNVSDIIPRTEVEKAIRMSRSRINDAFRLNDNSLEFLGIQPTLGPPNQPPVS
Experimental: Phage enriched from the third round of selection were screened by ELISA for strong ACE-2 binders. Immulon 2 96-well plates (Dynatech) were coated with streptavidin for 1 hour at 37° C. and subsequently coated with anti-FLAG antibody for 1 hour at room temperature. Half of the plates were further coated with FLAG-ACE-2 as the target plates, and the other half of the plates were coated with FLAG peptide as background plates. The amount of each protein or peptide coated was 100 ng per well. The coated plates were then incubated for 1 hour at room temperature with 1:2 diluted overnight phage cultures that were made by inoculating phage from individual plaques into bacterial host cells. After being washed 7 times with PBST, the plates were incubated with HRP-conjugated anti-M13 antibody (Pharmacia) for 1 hour at room temperature, washed 5 times, developed with TMB peroxidase substrate solution (Kirkegaad & Perry Laboratories, Gaithersburg, Md.), and read at 630 nm on an ELISA plate reader.

Binding result, binds:
YAMCFDWDECFLG (not fully specified (bridges); cysteine pairing not given here) [ACE-2 binding polypeptide YAMCFDWDECFLG]
SGECNWQQFSGWEICLRD (not fully specified (bridges); cysteine pairing not given here) [ACE-2 binding polypeptide SGECNWQQFSGWEICLRD]
B1
NRECHALFCMDF (disulfide 4-9 (inferred); not fully specified (N-terminus, C-terminus)) [ACE-2 binding polypeptide NRECHALFCMDF]
RGHCRDSRCMMNAPG (not fully specified (bridges); cysteine pairing not given here) [ACE-2 binding polypeptide RGHCRDSRCMMNAPG]
HYNCHTNDCVVL (not fully specified (bridges); cysteine pairing not given here) [ACE-2 binding polypeptide HYNCHTNDCVVL]
HLRCMTSDCIHF (not fully specified (bridges); cysteine pairing not given here) [ACE-2 binding polypeptide HLRCMTSDCIHF]
SIYCFDWEDCWDE (not fully specified (bridges); cysteine pairing not given here) [ACE-2 binding polypeptide SIYCFDWEDCWDE]
FFPCRALEKDSRCSFF (not fully specified (bridges); cysteine pairing not given here) [ACE-2 binding polypeptide FFPCRALEKDSRCSFF]
B2
B3
LYECEWKQFGPVEMCLNF (not fully specified (bridges); cysteine pairing not given here) [ACE-2 binding polypeptide LYECEWKQFGPVEMCLNF]
B4
SENCQALFCVDF (not fully specified (bridges); cysteine pairing not given here) [ACE-2 binding polypeptide SENCQALFCVDF]
VGFCFDWEPCDEL (not fully specified (bridges); cysteine pairing not given here) [ACE-2 binding polypeptide VGFCFDWEPCDEL]
FNPCRLQSRDSACRFR (not fully specified (bridges); cysteine pairing not given here) [ACE-2 binding polypeptide FNPCRLQSRDSACRFR]
AYLCDWILFDSFEMCLAP (not fully specified (bridges); cysteine pairing not given here) [ACE-2 binding polypeptide AYLCDWILFDSFEMCLAP]
B5
GIFCFEWETCYQA (not fully specified (bridges); cysteine pairing not given here) [ACE-2 binding polypeptide GIFCFEWETCYQA]
FQLCFDWEEECEES (not fully specified (bridges); cysteine pairing not given here) [ACE-2 binding polypeptide FQLCFDWEEECEES]
WQFCFDWDLNCDLR (not fully specified (bridges); cysteine pairing not given here) [ACE-2 binding polypeptide WQFCFDWDLNCDLR]
FLFCRLASRDSRCASP (not fully specified (bridges); cysteine pairing not given here) [ACE-2 binding polypeptide FLFCRLASRDSRCASP]
NIFCFDWEPCHFG (not fully specified (bridges); cysteine pairing not given here) [ACE-2 binding polypeptide NIFCFDWEPCHFG]
B6
YEYCFEWEQCWEK (not fully specified (bridges); cysteine pairing not given here) [ACE-2 binding polypeptide YEYCFEWEQCWEK]
IGFCFEWEVCYEG (not fully specified (bridges); cysteine pairing not given here) [ACE-2 binding polypeptide IGFCFEWEVCYEG]
HFSCRLPSLDSRCQLW (not fully specified (bridges); cysteine pairing not given here) [ACE-2 binding polypeptide HFSCRLPSLDSRCQLW]
FEICFDWEVCHEQ (not fully specified (bridges); cysteine pairing not given here) [ACE-2 binding polypeptide FEICFDWEVCHEQ]
YDWCFDWEQCWDQ (not fully specified (bridges); cysteine pairing not given here) [ACE-2 binding polypeptide YDWCFDWEQCWDQ]
B7
DYLCFDWEACWLS (not fully specified (bridges); cysteine pairing not given here) [ACE-2 binding polypeptide DYLCFDWEACWLS]
YQFCFDWETTCWLD (not fully specified (bridges); cysteine pairing not given here) [ACE-2 binding polypeptide YQFCFDWETTCWLD]
HSECRWEWFGRTMICMSF (not fully specified (bridges); cysteine pairing not given here) [ACE-2 binding polypeptide HSECRWEWFGRTMICMSF]
B8
RGWCLDSRCKVF (not fully specified (bridges); cysteine pairing not given here) [ACE-2 binding polypeptide RGWCLDSRCKVF]
NDVCLNDDCVYG (not fully specified (bridges); cysteine pairing not given here) [ACE-2 binding polypeptide NDVCLNDDCVYG]
MDFCFDWEECWTN (not fully specified (bridges); cysteine pairing not given here) [ACE-2 binding polypeptide MDFCFDWEECWTN]
